Assay results published in US20040053383A1, “Crystals of cytochrome P450 2C9, structures thereof and their use” (ASTEX TECHNOLOGY LTD., priority 2001, published 2004).

B1: Clone 1155: 2C9-FGloop with the substitution Lys206Glu (protein)
chain: MAKKTSSKGRPPGPTPLPVIGNILQIGIKDISKSLTNLSKVYGPVFTLYFGLKPIVVLHGYEAVKEALIDLGEEFSGRGIFPLAERANRGFGIVFSNGKKWKEIRRFSLMTLRNFGMGKRSIEDRVQEEARCLVEELRKTKASPCDPTFILGCAPCNVICSIIFHKRFDYKDQQFLNLMEKLNENIEILSSPWIQVYNNFPALLDYFPGTHNKLLKNVAFMKSYILEKVKEHQESMDMNNPQDFIDCFLMKMEKEKHNQPSEFTIESLENTAVDLFGAGTETTSTTLRYALLLLLKHPEVTAKVQEEIERVIGRNRSPCMQDRSHMPYTDAVVHEVQRYIDLLPTSLPHAVTCDIKFRNYLIPKGTTILISLTSVLHDNKEFPNPEMFDPHHFLDEGGNFKKSKYFMPFSAGKRICVGEALAGMELFLFLTSILQNFNLKSLVDPKNLDTTPVVNGFASVPPFYQLCFIPVHHHH
B2: 2C19: human cytochrome P450 2C19, published data (protein, UniProt P33261 1-490, looked up)
Cytochrome P450 2C19: MDPFVVLVLCLSCLLLLSIWRQSSGRGKLPPGPTPLPVIGNILQIDIKDVSKSLTNLSKIYGPVFTLYFGLERMVVLHGYEVVKEALIDLGEEFSGRGHFPLAERANRGFGIVFSNGKRWKEIRRFSLMTLRNFGMGKRSIEDRVQEEARCLVEELRKTKASPCDPTFILGCAPCNVICSIIFQKRFDYKDQQFLNLMEKLNENIRIVSTPWIQICNNFPTIIDYFPGTHNKLLKNLAFMESDILEKVKEHQESMDINNPRDFIDCFLIKMEKEKQNQQSEFTIENLVITAADLLGAGTETTSTTLRYALLLLLKHPEVTAKVQEEIERVIGRNRSPCMQDRGHMPYTDAVVHEVQRYIDLIPTSLPHAVTCDVKFRNYLIPKGTTILTSLTSVLHDNKEFPNPEMFDPRHFLDEGGNFKKSNYFMPFSAGKRICVGEGLARMELFLFLTFILQNFNLKSLIDPKDLDTTPVVNGFASVPPFYQLCFIPV

Experiments:
[1] = tested on: P450 2C9; type: biochemical, human
Protocol: Activity assays on P450 2C9 were performed in a 96-well plate assay format with a Fluoroscan Ascent FL Instruments (Labsystem), using the 7-methoxy-4-(trifluoromethyl)-coumarin as a fluorescent substrate.

[2] = tested on: P450 2C9; test: Functionality assay with methoxy-4-(trifluoromethyl)-coumarin as fluorescent substrate (Examples 6 and 8); type: biochemical, human; settings: 140 μM methoxy-4-(trifluoromethyl)-coumarin, 37° C.
Protocol: Activity assays on P450 2C9 were performed in a 96-well plate assay format with a Fluoroscan Ascent FL Instruments (Labsystem), using the methoxy-4-(trifluoromethyl)-coumarin as a fluorescent substrate.
(§1) Fifteen pmoles of P450 were reconstituted with 0.1 unit of purified human oxidoreductase, in presence of 140 μM of substrate methoxy-4-(trifluoromethyl)-coumarin, a NADPH regenerating system that includes 0.15 mM NADP^+, 0.38 mM Glucose-6-phosphate and 2.9 unit/ml glucose-6-phosphate dehydrogenase in 170 μl final volume of 25 mM KPi, pH 7.4, 0.38 mM MgCl2 Incubations were performed at 37° C. for several minutes and 7-hydroxy-4-(trifluoromethyl)-coumarin was used as metabolite standard to determinate the metabolic rate. The excitation and emission wavelengths used were respectively 409 and 530 nm.
as §1, with “MgCl2.” for “MgCl2”, “The excitation and emission wavelengths used were respectively 409 and 530 nm.” left out

[3] = target: 2C19 (Homo sapiens, UniProt P33261); settings: cited from earlier work

| Molecule | 7-MFC [1] | activity with 2C9 substrate [2] | 7-MFC [3] |
| --- | --- | --- | --- |
| B1 | 0.23 min⁻¹ | 0.083 pmol/min/pmol P450 | – |
| B2 | – | – | 2.98 min⁻¹ |
